Positions count from the first letter of the chain named. In names and notes the source's numbering stands.
Tests used:
[1] = biological target: T1, α-thrombin (UniProt P00734 328-363; P00734 364-622); experiment: Biacore assay
Protocol: (§1) The binding abilities of GPIbα-290/2V-Ig and GPIbα-290-2V/FFF-Ig to vWF and a-thrombin were evaluated in vitro using a Biacore assay.

[2] = biological target: T2, vWF A1 domain (UniProt P04275 1261-1468, limits assumed); experiment: binding constant; method not stated in Example 3
T2 construct: domain: A1; also called vWF A1 fragment

[3] = biological target: T3, intact von Willebrand factor (UniProt P04275 764-2813, limits assumed); experiment: binding constant; method not stated in Example 3
T3 construct: also called vWF; intact vWF

[4] = biological target: T2, vWF A1 domain; experiment: Biacore assay
Protocol: as §1

[5] = biological target: T2, vWF A1 domain; experiment: Biacore assay; remark: listed apart in the source
[6] = biological target: T3, intact von Willebrand factor; experiment: SPR (BiaCore); fully sulfated isoform
[7] = biological target: T1, α-thrombin; experiment: SPR (BiaCore)
[8] = biological target: T3, intact von Willebrand factor; experiment: SPR (BiaCore); 6 sulfated (fully sulfated)
[9] = biological target: T3, intact von Willebrand factor; experiment: SPR (BiaCore); 0 sulfated (unsulfated)
[10] = biological target: T3, intact von Willebrand factor; experiment: SPR (BiaCore); non-sulfated isoform

B1: GPIbα-IgG1Fc fusion protein with a wild-type human GPIbα sequence (Fc fusion)
chain: HPICEVSKVASHLEVNCDKRNLTALPPDLPKDTTILHLSENLLYTFSLATLMPYTRLTQLNLDRCELTKLQVDGTLPVLGTLDLSHNQLQSLPLLGQTLPALTVLDVSFNRLTSLPLGALRGLGELQELYLKGNELKTLPPGLLTPTPKLEKLSLANNNLTELPAGLLNGLENLDTLLLQENSLYTIPKGFFGSHLLPFAFLHGNPWLCNCEILYFRRWLQDNAENVYVWKQGVDVKAMTSNVASVQCDNSDKFPVYKYPGKGCPTLGDEGDTDLYDYYPEEDTEGDKVR
modifications: tyrosines 276, 278, 279 can be sulfated; sulfation state of the tested material not stated
notes: Made in CHO cells; dimerized forms were isolated; also called WT; GPIb-Ig WT; not shown: IgG1 Fc
With B1 as the binder, how does the Kd [1] read?
Its Kd is 760 nM.

B2: GPIb-290/2V-Ig (N-terminal 290 amino acids of GPIbα with G233V M239V fused to a human IgG1 Fc domain) (Fc fusion)
chain: B1 chain with G233V, M239V
modifications: sulfated tyrosines at 276, 278, 279 (extent not stated)
notes: also called GPIb2V-Ig; GP Ib-Ig2V; not shown: human IgG1 Fc domain
B2 was tested. Which Ka [2] did it give?
The Ka was 1.9e+08 M⁻¹.

What about the Ka [3] of the same binder?
Its Ka is 5.6e+08 M⁻¹.

What about the Kd [1] of the same binder?
Its Kd is 630 nM.

And the Kd [4]?
The Kd was 5 nM.

B3: GPIb-290/2V/FFF-Ig (GPIb-290/2V-Ig with Tyr-276, 278, 279 changed to phenylalanine) (Fc fusion)
chain: B1 chain with G233V, M239V, Y276F, Y278F, Y279F
notes: Non-sulfated chimera; also called GPIbα-290/2V/FFF-Ig; GPIbα-290-2V/FFF-Ig; not shown: human IgG1 Fc domain
Which results are given for B3?
Ka [2]: 9.1e+07 M⁻¹; Ka [3]: 2.4e+08 M⁻¹; fold decrease in binding against GPIb-290/2V-Ig [5]: ~3 fold; Kd [1]: 35800 nM; Kd [4]: 15.4 nM

B4: GPIbα fusion protein variant 3V (G233V K237V M239V) (Fc fusion, not shown: large carriers)
chain: B1 chain with G233V, K237V, M239V
How did the Ka [2] turn out when B4 was run?
Its Ka is 1.5e+09 M⁻¹.

What about the Ka [3] of the same binder?
Its Ka is 1.7e+09 M⁻¹.

B5: GPIbα fusion protein variant 3V/C65S (Fc fusion, not shown: large carriers)
chain: B1 chain with C65S, G233V, K237V, M239V
notes: also called 3V/C-S
How did the Ka [2] turn out when B5 was run?
Its Ka is 1.5e+09 M⁻¹.

And the Ka [3]?
The Ka was 1.7e+09 M⁻¹.

B6: GPIbα-IgG1Fc fusion protein 1V (M239V), fully sulfated isoform (Fc fusion)
chain: B1 chain with M239V
modifications: sulfotyrosine at 276, 278 and 279 (fully sulfated: sulfation state 6 per dimer)
notes: also called 1V 6 sulfated; GP Ibα-Ig239V fully sulfated isoform; not shown: IgG1 Fc
What does the source list for B6?
Kd [6]: 119 nM; fold higher binding affinity than the unsulfated isoform [7]: ~80 fold; Kd [8]: 113 to 521 nM

B7: GPIbα-IgG1Fc fusion protein 1V (M239V), non-sulfated isoform (Fc fusion)
chain: B1 chain with M239V
modifications: tyrosines 276, 278, 279 not sulfated (sulfation state 0)
notes: also called 1V 0 sulfated; GP Ibα-Ig239V unsulfated isoform; not shown: IgG1 Fc
What does the source list for B7?
Kd [9]: 113 to 521 nM; Kd [10]: 284 nM

B8: GPIbα-IgG1Fc fusion protein 2V (G233V M239V), fully sulfated isoform (Fc fusion)
chain: B1 chain with G233V, M239V
modifications: sulfotyrosine at 276, 278 and 279 (fully sulfated: sulfation state 6 per dimer)
notes: also called 2V 6 sulfated; GP Ib-Ig2V fully sulfated isoform; not shown: IgG1 Fc
For B8, which Kd [6] is on record?
The Kd was 4 nM.

What about the “fold higher binding affinity than the unsulfated isoform” value [7] of the same binder?
The value was roughly 80 fold.

And the Kd [8]?
Its Kd is 3.4 to 15 nM.

B9: GPIbα-IgG1Fc fusion protein 2V (G233V M239V), non-sulfated isoform (Fc fusion)
chain: B1 chain with G233V, M239V
modifications: tyrosines 276, 278, 279 not sulfated (sulfation state 0)
notes: also called 2V 0 sulfated; GP Ib-Ig2V unsulfated isoform; not shown: IgG1 Fc
Which results are given for B9?
Kd [9]: 3.4 to 15 nM; Kd [10]: 12 nM

B10: GPIbα-IgG1Fc fusion protein with the M239V (1V) substitution (Fc fusion)
chain: B1 chain with M239V
modifications: tyrosines 276, 278, 279 can be sulfated; sulfation state not stated
notes: also called GP Ibα-Ig239V; not shown: IgG1 Fc
Which Ka [3] does the source give for B10 here?
Its Ka is 7.7e+07 M⁻¹.
